Source: patent US8563695B2, “Antibodies that bind β2” (Genentech, Inc., priority 2007, dated 2013)

Key:
SW620 cells [1] = test: Chemical inhibition of Notch signaling: E-cadherin staining of β2 ECD-treated SW620 cells; type: cell-based, human
Procedure: Vimentin and actin cytoskeleton (rhodamine-phalloidin): cells were fixed in 4% paraformaldehyde for 20 minutes at room temperature and permeabilzed with 0.05% saponin for 5 minutes at room temperature. For β2, REST, cleaved-Notch1 NICD and E-cadherin staining: cells were fixed in methanol at 4° C. for 2 minutes. Primary antibody incubation was at room temperature for 1 hour (for vimentin staining), or for 15 minutes (for rhodamine-phalloidin staining) or at 37° C. for 1 hour (for β2, REST, cleaved-Notch1 NICD and E-cadherin staining). Secondary antibody incubation was at room temperature for 30 minutes. […]
Images were converted from Photoshop format to Tif in Photoshop CS2 (version 9.0.2, Adobe; San Jose, Calif.). […] Typically, 5 independent regions were analyzed and combined for each analysis.
Activation of Notch signaling requires cleavage of the receptor by both an ADAM protease and gamma-secretase to release the Notch intracellular domain (NICD). […] SW620 cells were mixed with DMSO (vehicle control) or the specific gamma-secretase inhibitor DAPT (N—[N-(3,5-difluorophenylacetyl-L-alanine)]-S-phenylglycine t-butylester) at 500 nM in DMSO, treated with β2 ECD in conditioned media, and analyzed for loss of E-cadherin. […]

SW620 cells [2] = test: Stimulation of SW620 cells with Notch ligands (co-culture or plate-bound) for EMT induction; type: cell-based, human; details: exogenous ligand in trans by co-culture or plate-bound; data not shown
HEK293 cells = test: β2 ECD induced phenotype assay in HEK293; type: cell-based; details: HEK293, do not express Notch1; FIG. 11A
Procedure: (§1) Vimentin and actin cytoskeleton (rhodamine-phalloidin): cells were fixed in 4% paraformaldehyde for 20 minutes at room temperature and permeabilzed with 0.05% saponin for 5 minutes at room temperature. For β2, REST, cleaved-Notch1 NICD and E-cadherin staining: cells were fixed in methanol at 4° C. for 2 minutes. Primary antibody incubation was at room temperature for 1 hour (for vimentin staining), or for 15 minutes (for rhodamine-phalloidin staining) or at 37° C. for 1 hour (for β2, REST, cleaved-Notch1 NICD and E-cadherin staining). Secondary antibody incubation was at room temperature for 30 minutes. Antibodies used were as following: α-ankyrin monoclonal antibody (Chemincon International, Temecula, Calif.); α-vimentin monoclonal antibody (Sigma-Aldrich, St. Louis, Mo.); rhodamine-phalloidin (Molecular Probes, Eugene, Oreg.), α-REST polyclonal antibody (Upstate, Lake Placid, N.Y.), α-E-cadherin monoclonal antibody (Invitrogen, Carlsbad, Calif.), α-Notch1 (Val1744 peptide, detects both intact and cleaved Notch1 NICD) (Cell Signaling, Danvers, Mass.) or α-β2 monoclonal antibody (Genentech, Inc.). Secondary antibodies were as follows: Cy3-conjugated rabbit α-mouse IgG or Cy3-conjugated donkey α-rabbit IgG (Jackson Lab, Bar Harbor, Me.). Slides were mounted with Vectashield mounting media with DAPI (4′,6-diamidino-2-phenylindole) (Vector Lab, Burlingame, Calif.). […]

SW620 cells [3] = test: Migration assay of SW620 cells treated with β2 ECD; type: cell-based, human; details: β2 ECD in conditioned media, 0.1% FBS, 18 hours; p=0.0009
Procedure: Migration assays were performed using the HTS FluoroBlock Multiwell insert system with […] (BD Biosciences, Bedford, Mass.). 10^5 cells/well were seeded into the upper wells and FBS was added to the bottom wells. After 18 hr, cells that migrated to the other side of the trans-well membrane were stained in 10 um YO-PRO-1 iodide (Invitrogen, Eugene, Oreg.) and quantitated using the fluorescence plate reader Spectra Max GeminiEM (Molecular Devices, Sunnyvale, Calif.).

CHO cells = test: Methotrexate resistance in CHO cells (trypan blue); type: cell-based, Chinese Hamster; details: 200 nM methotrexate for 48 hours; 60% of control-treated cells died; p=0.01
Procedure: Resistance to starvation: SW620 cells were seeded into 6 well plates at 25% confluence in complete media overnight. This media was replaced the next morning with media lacking FBS. For the assay, cells were detached using trypsin, washed, and stained in 0.4% Trypan Blue (Invitrogen, Carlsbad, Calif.). Total cells and dead cells were counted using a hemocytometer. Assays were performed in triplicate. Doxorubicin resistance: 2×10^4 SW620 cells were seeded in 96 well clear bottom black plates (Corning Inc., Corning, N.Y.) with serial dilutions of doxorubicin hydrochloride (Sigma-Aldrich, St. Louis, Mo.) and incubated for 5 days. Cell viability was measured by using Cell Titer Glo Luminescent Cell Viability Kit (Promega, Madison, Wis.). Luminescence was quantified using an Envision 2103 multilabel reader (PerkinElmer, Finland). Methotrexate resistance: 5×10^5 CHO cells were seeded in 6-well plates with β2 ECD in conditioned medium or control conditioned medium containing 200 nm methotrexate (Genentech Inc.). Cells were detached from the plate and stained with Trypan Blue 0.4% (Invitrogen, Carlsbad, Calif.) as described.

Notch1 NICD = test: Translocation of Notch1 NICD to nucleus (confocal immunofluorescence); type: cell-based, human; details: SW620 cells 6 hours after treatment with β2 ECD in conditioned media; 100 um Lactacystin
Procedure: as §1, with “Inc.).” for “Inc.). Secondary antibodies were as follows: Cy3-conjugated rabbit α-mouse IgG or Cy3-conjugated donkey α-rabbit IgG (Jackson Lab, Bar Harbor, Me.). Slides were mounted with Vectashield mounting media with DAPI (4′,6-diamidino-2-phenylindole) (Vector Lab, Burlingame, Calif.).”
Activation of Notch1 by ligands results in cleavage to release the NICD, which translocates to the nucleus, and in concert with other proteins, directly regulates Notch target gene transcription. We analyzed whether nuclear NICD could be detected in cells in response to β2. […]

[4] = tested on: naïve CHO cells, MDCK cells, HUVEC (endothelial), or tumor cell lines NCI-H226, SW620, SW480, and PC-3; test: β2 ECD induced phenotype assay (actin cytoskeleton, morphology); type: cell-based; details: conditioned media containing β2 ECD, 48-72 hours
Procedure: as §1

[5] = molecular target: T1, Notch1 ECD fragment containing EGF repeats 22-33 (Homo sapiens, UniProt P46531); test: Direct binding of β2 ECD and Notch1 ECD fragment EGF 22-33; details: α-FLAG immunoblot
T1 construct: purified fragments of the Notch1 ECD, containing either EGF repeats 10-21 or 22-33; FLAG (C)

[6] = molecular target: T2, Notch1 ECD (EGF repeats 6-36) (Homo sapiens, UniProt P46531); test: Direct binding of β2 ECD and Notch1 ECD (Ni-NTA pull-down, immunoblot); details: approximately 1 nM Notch1 ECD and 20 nM β2 ECD; vs control conditioned media with irrelevant histidine-tagged protein
T2 construct: Notch1 ECD region containing the majority of the EGF repeat region (repeats 6-36); FLAG (C)
Procedure: Immunoprecipitation: cells were removed from culture plates using 5 mm EDTA and lysed in TBS buffer containing 0.5% NP-40, EDTA-free protease inhibitor (Roche Diagnostics, Indianapolis, Ind.) and 1 mm PMSF. The cell lysate was incubated with pre-saturated protein G-agarose (Roche Diagnostics, Indianapolis, Ind.) at 4° C. for 1.5 hour followed by incubation with α-β2 monoclonal antibody at 4° C. for 2 hours. This cell lysate and antibody mixture was then incubated with pre-saturated protein G-agarose at 4° C. overnight. The agarose was collected and proteins were eluted in Tris-Glycine gel loading buffer (Invitrogen, Carlsbad, Calif.) for immunoblot analysis. Direct binding: conditioned media was collected as described above, incubated with FLAG-tagged Notch1 ECD:6-36 (5 μg) in 15 ml for 2 hours at room temperature with shaking 50 μl of Ni-NTA agarose bead slurry (Qiagen) was added with incubation for 2 hours at room temperature with shaking. Ni-NTA beads were collected by centrifugation and washed 3 times with PBS. Alternatively, conditioned media was treated with Ni-NTA beads to enrich for β2 and the resulting slurry incubated with Notch1 ECD:6-36 (5 μg) in 1 ml PBS and incubated and washed as described. Samples were eluted into 2× loading buffer. […]

[7] = tested on: Twist1 and HES1 transcript; test: Transcript expression (microarray, RT-PCR) in SW620 cells treated with β2 ECD; type: cell-based, human
Procedure: HES1 and Twist1 transcript expression from 0-72 hours in SW620 cells treated β2 ECD in conditioned medium. RNA was extracted from cells at 0, 6, 18, 24, 48, and 72 hour timepoints and microarray analysis performed on Agilent Whole Human Genome microarrays versus a universal reference RNA. Log ratio (Y-axis) is plotted against time in hours (X-axis). Transcript data for 2 independent HES1 oligonucleotide probe sequences and for Twist1 are shown.
RT-PCR analysis of Twist1 transcript expression at 0, 6, and 18 hr timepoints in SW620 cells treated with β2 ECD. Twist1 expression was normalized to housekeeping gene RPL19.

[8] = molecular target: T3, Notch1 ECD fragment containing EGF repeats 10-21 (Homo sapiens, UniProt P46531); test: Direct binding of β2 ECD and Notch1 ECD fragment EGF 10-21; details: α-FLAG immunoblot
T3 construct: purified fragments of the Notch1 ECD, containing either EGF repeats 10-21 or 22-33; FLAG (C)

SW620 cells [9] = test: E-cadherin and vimentin staining of SW620 cells treated with β2 ECD; type: cell-based, human
Procedure: as §1

T3 sequence (P46531 372-827 limits assumed): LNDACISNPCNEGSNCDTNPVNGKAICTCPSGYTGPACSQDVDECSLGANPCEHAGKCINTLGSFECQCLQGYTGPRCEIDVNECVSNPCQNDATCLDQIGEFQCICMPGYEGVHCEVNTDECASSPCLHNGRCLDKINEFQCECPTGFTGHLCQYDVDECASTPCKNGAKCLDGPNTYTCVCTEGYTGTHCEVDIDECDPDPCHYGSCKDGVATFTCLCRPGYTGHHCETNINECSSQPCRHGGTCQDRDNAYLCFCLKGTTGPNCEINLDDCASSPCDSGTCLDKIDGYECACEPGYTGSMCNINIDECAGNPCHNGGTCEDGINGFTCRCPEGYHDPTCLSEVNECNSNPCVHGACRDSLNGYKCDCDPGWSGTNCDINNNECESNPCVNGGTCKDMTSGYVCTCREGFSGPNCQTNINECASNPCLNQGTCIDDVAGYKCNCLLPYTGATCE
T1 sequence (P46531 829-1305): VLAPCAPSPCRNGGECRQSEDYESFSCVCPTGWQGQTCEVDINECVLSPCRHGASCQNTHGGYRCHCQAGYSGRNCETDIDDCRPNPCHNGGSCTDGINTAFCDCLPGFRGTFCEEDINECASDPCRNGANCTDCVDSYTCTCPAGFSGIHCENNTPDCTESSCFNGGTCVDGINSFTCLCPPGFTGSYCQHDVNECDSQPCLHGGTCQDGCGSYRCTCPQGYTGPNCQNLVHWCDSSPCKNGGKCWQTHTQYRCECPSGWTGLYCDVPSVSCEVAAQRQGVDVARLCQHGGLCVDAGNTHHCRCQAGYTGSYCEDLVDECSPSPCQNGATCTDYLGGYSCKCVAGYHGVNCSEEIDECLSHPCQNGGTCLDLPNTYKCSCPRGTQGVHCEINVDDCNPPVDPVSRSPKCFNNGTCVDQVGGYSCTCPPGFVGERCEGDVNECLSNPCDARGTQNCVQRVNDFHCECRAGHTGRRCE
T2 sequence (P46531 218-1426 limits assumed): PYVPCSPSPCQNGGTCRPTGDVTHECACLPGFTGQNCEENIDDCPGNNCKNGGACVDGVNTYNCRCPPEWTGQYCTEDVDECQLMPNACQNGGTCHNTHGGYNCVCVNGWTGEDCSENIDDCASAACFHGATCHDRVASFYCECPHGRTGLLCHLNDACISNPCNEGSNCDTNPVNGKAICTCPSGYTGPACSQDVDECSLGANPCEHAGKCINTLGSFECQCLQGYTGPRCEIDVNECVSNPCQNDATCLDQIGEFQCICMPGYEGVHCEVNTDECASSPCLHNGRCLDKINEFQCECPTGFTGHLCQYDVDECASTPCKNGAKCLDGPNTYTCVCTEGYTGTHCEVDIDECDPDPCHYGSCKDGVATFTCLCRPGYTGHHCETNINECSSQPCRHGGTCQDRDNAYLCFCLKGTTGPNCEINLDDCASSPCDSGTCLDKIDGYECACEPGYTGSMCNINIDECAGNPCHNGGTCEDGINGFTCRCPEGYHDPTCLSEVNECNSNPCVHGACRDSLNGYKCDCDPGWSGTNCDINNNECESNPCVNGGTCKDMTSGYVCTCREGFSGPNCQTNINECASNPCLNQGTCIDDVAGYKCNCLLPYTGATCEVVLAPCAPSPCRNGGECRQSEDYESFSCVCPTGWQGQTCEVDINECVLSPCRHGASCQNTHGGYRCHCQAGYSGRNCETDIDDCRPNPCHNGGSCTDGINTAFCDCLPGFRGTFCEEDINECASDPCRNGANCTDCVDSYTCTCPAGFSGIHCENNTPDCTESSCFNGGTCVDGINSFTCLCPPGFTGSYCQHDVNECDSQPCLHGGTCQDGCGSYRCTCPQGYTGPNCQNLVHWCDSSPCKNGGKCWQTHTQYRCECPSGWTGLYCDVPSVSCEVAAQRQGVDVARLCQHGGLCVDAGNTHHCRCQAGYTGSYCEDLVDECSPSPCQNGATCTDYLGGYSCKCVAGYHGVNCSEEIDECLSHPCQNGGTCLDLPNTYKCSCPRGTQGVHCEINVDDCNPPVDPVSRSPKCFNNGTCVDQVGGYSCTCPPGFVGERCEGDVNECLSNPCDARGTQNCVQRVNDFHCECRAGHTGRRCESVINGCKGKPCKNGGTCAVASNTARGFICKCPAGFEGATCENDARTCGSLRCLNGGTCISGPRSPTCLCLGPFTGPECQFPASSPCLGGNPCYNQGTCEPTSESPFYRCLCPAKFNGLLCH

## C[C@H](NC(=O)Cc1cc(F)cc(F)c1)C(=O)NC(C(=O)OC(C)(C)C)c1ccccc1 (stereo partly drawn) [DAPT, N—[N-(3,5-difluorophenylacetyl-L-alanine)]-S-phenylglycine t-butylester]
SW620 cells [1]; DAPT 500 nM in DMSO, SW620 cells treated with β2 ECD in conditioned media
  E-cadherin staining: remained E-cadherin positive
SW620 cells [1]; DAPT-treated vs DMSO, β2-ECD treated cells, p=0.00001
  E-cadherin levels, quantitative analysis of staining: significantly different

## Jagged1: Notch ligand of the Jagged family, added exogenously (co-culture or plate-bound)
SW620 cells [2]
  Induction of EMT or related morphological change: no evidence of induction of EMT or related morphological change

B1: β2 ECD: C-terminal polyhistidine-tagged (HIS8) extracellular domain of β2 (SCN2B) secreted from CHO cells, used in conditioned media (protein)
chain: MEVTVPATLNVLNGSDARLPCTFNSCYTVNHKQFSLNWTYQECNNCSEEMFLQFRMKIINLKLERFQDRVEFSGNPSKYDVSVMLRNVQPEDEGIYNCYIMNPPDRHRGHGKIHLQVLMEEPPERDSTVAHHHHHHHH
HEK293 cells
  Phenotypic change in response to β2: no phenotypic change
SW620 cells [3]
  Migration of SW620 cells across transwell membrane: significant increase in migration
CHO cells
  Cell death as percentage of total cells: 10%
Notch1 NICD
  Nuclear Notch1 NICD staining: nuclear NICD was detected
[4]
  Phenotypic changes (elongation, enlargement, actin cytoskeleton remodeling): capable of inducing phenotypic changes
[5]
  Binding to Notch1 ECD fragment EGF repeats 22-33: no detectable binding
[6]
  Binding to FLAG-tagged Notch1 ECD (repeats 6-36): recovery of tagged Notch1
[7]; 6 hours after treatment with β2 ECD, oscillating at subsequent timepoints
  Twist1 transcript expression: induction of Twist1 transcript
[7]; at 6 hours after β2 ECD in conditioned media
  HES1 transcript expression: elevated HES1 transcript
[8]
  Binding to Notch1 ECD fragment EGF repeats 10-21: specifically bound
SW620 cells [9]; β2 ECD in conditioned media for 48 hours
  E-cadherin protein levels (immunofluoresence and FACS): greatly reduced E-cadherin protein levels
SW620 cells [9]; β2 ECD in conditioned media, from otherwise undetectable levels
  Vimentin protein expression (immunofluorescent staining): substantial increase in vimentin protein expression
